Reference: patent US20160109449A1 (JULIUS MAXIMILIANS UNIVERSITAET WUERZBURG, published 2016)
Like-named read-outs stand apart in the source and are kept apart here.

Key:
[1] = target: IsaA oligopeptide SEQ ID NO: 42 (Staphylococcus aureus); assay: peptide array on glass slide, fluorescent secondary antibody
[2] = target: IsaA oligopeptide SEQ ID NO: 57 (Staphylococcus aureus); assay: as above
[3] = target: IsaA oligopeptide SEQ ID NO: 12 (Staphylococcus aureus); assay: as above
[4] = target: IsaA oligopeptide SEQ ID NO: 22 (Staphylococcus aureus); assay: as above
[5] = target: IsaA oligopeptide SEQ ID NO: 38 (Staphylococcus aureus); assay: as above
[6] = target: IsaA oligopeptide SEQ ID NO: 35 (Staphylococcus aureus); assay: as above
[7] = target: IsaA oligopeptide SEQ ID NO: 26 (Staphylococcus aureus); assay: as above
[8] = target: IsaA oligopeptide SEQ ID NO: 23 (Staphylococcus aureus); assay: as above
[9] = target: IsaA oligopeptide SEQ ID NO: 34 (Staphylococcus aureus); assay: as above
[10] = target: IsaA oligopeptide SEQ ID NO: 55 (Staphylococcus aureus); assay: as above
[11] = target: IsaA oligopeptide SEQ ID NO: 48 (Staphylococcus aureus); assay: as above
[12] = target: IsaA oligopeptide SEQ ID NO: 19 (Staphylococcus aureus); assay: as above
[13] = target: IsaA oligopeptide SEQ ID NO: 51 (Staphylococcus aureus); assay: as above
[14] = target: IsaA oligopeptide SEQ ID NO: 58 (Staphylococcus aureus); assay: as above
[15] = target: IsaA oligopeptide SEQ ID NO: 32 (Staphylococcus aureus); assay: as above
[16] = target: IsaA oligopeptide SEQ ID NO: 33 (Staphylococcus aureus); assay: as above
[17] = target: IsaA oligopeptide SEQ ID NO: 63 (Staphylococcus aureus); assay: as above
[18] = target: IsaA oligopeptide SEQ ID NO: 11 (Staphylococcus aureus); assay: as above
[19] = target: IsaA oligopeptide SEQ ID NO: 56 (Staphylococcus aureus); assay: as above
[20] = target: IsaA oligopeptide SEQ ID NO: 50 (Staphylococcus aureus); assay: as above
[21] = target: T1, recombinant IsaA protein of Staphylococcus aureus (29 kDa immunodominant antigen IsaA) (Staphylococcus aureus, UniProt Q2FV52 30-233, limits assumed); assay: SPR (BIACORE 2000), biotinylated IsaA on streptavidin chip, antibody as analyte
T1 construct: Coated as rIsaA in the ELISA; In the first SPR experiment it was N-biotinylated with sulfo-NHS-LC-biotin (mostly at a single site) and immobilised on streptavidin; In the second SPR experiment it was the analyte in solution; also called rIsaA; 29 kDa IsaA antigen
T1 sequence (looked up): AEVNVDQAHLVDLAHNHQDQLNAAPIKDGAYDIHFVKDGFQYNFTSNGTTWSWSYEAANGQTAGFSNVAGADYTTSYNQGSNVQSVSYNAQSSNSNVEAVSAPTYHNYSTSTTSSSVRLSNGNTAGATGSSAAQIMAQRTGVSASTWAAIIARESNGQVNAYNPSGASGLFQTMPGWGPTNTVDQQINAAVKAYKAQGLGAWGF
Experimental: The amount of the immobilized antigen corresponds to about 100 resonance units [RU] measured by means of the BIACORE®2000 system.
Interaction analyses were performed using HBS150 buffer (10 mM HEPES pH7.4, 150 mM NaCl, 3.4 mM EDTA). Sensorgrams were recorded at a flow rate of 10 μl/min at 25° C. The association and dissociation time was set to 10 min. The chips were regenerated after each cycle with different regeneration solutions (A: 1 mM CH₃COOH, 1 M NaCl, pH 3; B: 4 M MgCl₂; C: 1 mM CH₃COOH, 1 M NaCl, 6 M Urea, pH 3) for 2 min.

[22] = target: T2, IsaA oligopeptide SEQ ID NO: 38 (Staphylococcus aureus); assay: peptide array on glass slide, fluorescent secondary antibody
T2 construct: Synthetic 15-mer of IsaA, spotted on a glass slide
T2 peptide: YNAQSSNSNVEAVSA
Experimental: (§1) Each oligopeptide was immobilized on a small spot on a glass side. Binding of the monoclonal antibodies secreted by the hybridoma cell line DSM ACC2987 and of control antibodies to these spots was examined upon incubation with these antibodies by binding of fluorescence labeled secondary antibodies and detecting fluorescence intensities.

[23] = target: T3, IsaA oligopeptide SEQ ID NO: 62 (Staphylococcus aureus); assay: as above
T3 construct: Synthetic 15-mer of IsaA, spotted on a glass slide
T3 peptide: DQQINAAVKAYKAQG
Experimental: as §1

[24] = target: T4, IsaA oligopeptide SEQ ID NO: 49 (Staphylococcus aureus); assay: as above
T4 construct: Synthetic 15-mer of IsaA, spotted on a glass slide
T4 peptide: AAQIMAQRTGVSAST
Experimental: as §1

[25] = target: T5, IsaA oligopeptide SEQ ID NO: 19 (Staphylococcus aureus); assay: as above
T5 construct: Synthetic 15-mer of IsaA, spotted on a glass slide
T5 peptide: DLAHNHQDQLNAAPI
Experimental: as §1

[26] = target: T6, IsaA oligopeptide SEQ ID NO: 23 (Staphylococcus aureus); assay: as above
T6 construct: Synthetic 15-mer of IsaA, spotted on a glass slide
T6 peptide: DGAYDIHFVKDGFQY
Experimental: as §1

[27] = target: T7, IsaA oligopeptide SEQ ID NO: 55 (Staphylococcus aureus); assay: as above
T7 construct: Synthetic 15-mer of IsaA, spotted on a glass slide
T7 peptide: NGQVNAYNPSGASGL
Experimental: as §1

[28] = target: T8, IsaA oligopeptide SEQ ID NO: 10 (Staphylococcus aureus); assay: as above
T8 construct: Synthetic 15-mer of IsaA, spotted on a glass slide
T8 peptide: IMASSLAVALGVTGY
Experimental: as §1

[29] = target: T9, IsaA oligopeptide SEQ ID NO: 44 (Staphylococcus aureus); assay: as above
T9 construct: Synthetic 15-mer of IsaA, spotted on a glass slide
T9 peptide: TTSSSVRLSNGNTAG
Experimental: as §1

[30] = target: T10, IsaA oligopeptide SEQ ID NO: 41 (Staphylococcus aureus); assay: as above
T10 construct: Synthetic 15-mer of IsaA, spotted on a glass slide
T10 peptide: VSAPTYHNYSTSTTS
Experimental: as §1

[31] = target: T11, IsaA oligopeptide SEQ ID NO: 15 (Staphylococcus aureus); assay: as above
T11 construct: Synthetic 15-mer of IsaA, spotted on a glass slide
T11 peptide: HQAHAAEVNVDQAHL
Experimental: as §1

[32] = target: T12, IsaA oligopeptide SEQ ID NO: 12 (Staphylococcus aureus); assay: as above
T12 construct: Synthetic 15-mer of IsaA, spotted on a glass slide
T12 peptide: ALGVTGYAAGTGHQA
Experimental: as §1

[33] = target: T13, IsaA oligopeptide SEQ ID NO: 56 (Staphylococcus aureus); assay: as above
T13 construct: Synthetic 15-mer of IsaA, spotted on a glass slide
T13 peptide: NAYNPSGASGLFQTM
Experimental: as §1

[34] = target: T14, IsaA oligopeptide SEQ ID NO: 37 (Staphylococcus aureus); assay: as above
T14 construct: Synthetic 15-mer of IsaA, spotted on a glass slide
T14 peptide: QSVSYNAQSSNSNVE
Experimental: as §1

## control antibodies (peptide array) (antibody)
[1]
  Binding (fluorescence intensity): 35.7
[2]
  Binding (fluorescence intensity): 313
[3]
  Binding (fluorescence intensity): -22
[4]
  Binding (fluorescence intensity): 26.3
[5]
  Binding (fluorescence intensity): 97.7
[6]
  Binding (fluorescence intensity): 110
[7]
  Binding (fluorescence intensity): 261
[8]
  Binding (fluorescence intensity): 367
[9]
  Binding (fluorescence intensity): 98.7
[10]
  Binding (fluorescence intensity): 36
[11]
  Binding (fluorescence intensity): 398
[12]
  Binding (fluorescence intensity): 83.7
[13]
  Binding (fluorescence intensity): 58
[14]
  Binding (fluorescence intensity): 46.3
[15]
  Binding (fluorescence intensity): 98.3
[16]
  Binding (fluorescence intensity): -0.7
[17]
  Binding (fluorescence intensity): 57.7
[18]
  Binding (fluorescence intensity): -11
[19]
  Binding (fluorescence intensity): -17.3
[20]
  Binding (fluorescence intensity): -49.7

B1: monoclonal antibody MAB-UK-66 secreted by hybridoma cell line DSM ACC2987 (antibody, V domains shown)
VH: DVKLVESGGGLVKLGGSLKLSCSASGFTFSNYYMSWVRQTPEKRLELVADINGNGGSTYYPDTVKGRFTISRDNAKNTLYLQMSSLKSEDTALYYCVRRGGYYALDYWGQGTTVTVSS
VL: DVVMTQTPLSLPVSLGDQASISCRSSQSLVHINGNTYLHWYLQKPGQSPKLLIYRVSNRFSGVPDRFSGSGSGTDFTLKISRVEAEDLGVYFCSQSTHVPWTFGGGTKLELKR
notes: Monoclonal mouse antibody from a hybridoma; Detected with anti-mouse IgG; also called antibodies secreted by cell line DSM ACC2987; anti-IsaA MAB
[21]
  koff: < 1e-05 s⁻¹
[22]
  Binding (fluorescence intensity): 975
[23]
  Binding (fluorescence intensity): 551
[24]
  Binding (fluorescence intensity): 399
[25]
  Binding (fluorescence intensity): 31900
[26]
  Binding (fluorescence intensity): 63900
[27]
  Binding (fluorescence intensity): 1030
[28]
  Binding (fluorescence intensity): 228
[29]
  Binding (fluorescence intensity): 486
[30]
  Binding (fluorescence intensity): 421
[31]
  Binding (fluorescence intensity): 11700
[32]
  Binding (fluorescence intensity): 680
[33]
  Binding (fluorescence intensity): 959
[34]
  Binding (fluorescence intensity): 139
